The target in assay [1] is T1, epitope mapping peptide #2 (human).
T1 peptide: Biotin-AFNFDQETVINPETGEQIQ
Briefly: labelled AK1967 on biotinylated peptide #2 captured on avidin plate, chemiluminescence. The protocol:
(§1) The plates were filled with 200 μl of labelled and diluted detection antibody (tracer) and incubated for 4 h at room temperature. Unbound tracer was removed by washing 4 times with 350 μl washing solution (20 mM PBS, pH 7.4, 0.1% Triton X-100). Well-bound chemiluminescence was measured by using the Centro LB 960 luminometer (Berthold Technologies GmbH & Co. KG).

Assay [2] has as its target T2, epitope mapping peptide #6 (human).
T2 peptide: Biotin-AFNFDQETVINPETG
Put plainly: labelled AK1967 on biotinylated peptide #6 captured on avidin plate, chemiluminescence. The protocol: as §1

Assay [3] concerns the target T3, epitope mapping peptide #5 (human).
T3 peptide: Biotin-AFNFDQETVINPETGE
Put plainly: labelled AK1967 on biotinylated peptide #5 captured on avidin plate, chemiluminescence. As for the experimental part:
as §1

Assay [4] concerns the target T4, epitope mapping peptide #12 (human, not fully specified (C-terminus)).
T4 peptide: PETGEQIQSWYK(Biotin)
Briefly: labelled AK1967 on biotinylated peptide captured on avidin plate, chemiluminescence. As for the experimental part: as §1

Assay [5] deals with T5, epitope mapping peptide #13 (human, not fully specified (C-terminus)).
T5 peptide: NPETGEQIQSWYK(Biotin)
The description is as above. As for the experimental part: as §1

Assay [6] deals with T6, epitope mapping peptide #8 (human).
T6 peptide: Biotin-AFNFDQETVINPE
The description is as above. As for the experimental part: as §1

The target in assay [7] is T7, epitope mapping peptide #11 (human, not fully specified (C-terminus)).
T7 peptide: ETGEQIQSWYK(Biotin)
Described as above. The protocol: as §1

In assay [8] the target is T8, epitope mapping peptide #10 (human).
T8 construct: also called bio-AFNFDQETVIN
T8 peptide: Biotin-AFNFDQETVIN
The description is as above. The protocol: as §1

The target of assay [9] is T9, epitope mapping peptide #7 (human).
T9 peptide: Biotin-AFNFDQETVINPET
Described as above. As for the experimental part: as §1

The target in assay [10] is T10, epitope mapping peptide #9 (human).
T10 peptide: Biotin-AFNFDQETVINP
The assay is described as above. The protocol: as §1

For assay [11], the target named is T11, epitope mapping peptide #17 (human, not fully specified (C-terminus)).
T11 peptide: ETVINPETGEQIQSWYK(Biotin)
Briefly: labelled AK1967 on biotinylated peptide #17 captured on avidin plate, chemiluminescence. The protocol: as §1

Assay [12] deals with T12, epitope mapping peptide #4 (human).
T12 peptide: Biotin-AFNFDQETVINPETGEQ
Briefly: labelled AK1967 on biotinylated peptide #4 captured on avidin plate, chemiluminescence. The protocol:
as §1

For assay [13], the target named is T13, epitope mapping peptide #3 (human).
T13 peptide: Biotin-AFNFDQETVINPETGEQI
Put plainly: labelled AK1967 on biotinylated peptide #3 captured on avidin plate, chemiluminescence. As for the experimental part: as §1

In assay [14] the target is T14, epitope mapping peptide #1 (human, biotinylated at the N- or C-terminus (which end is in the drawing only)).
T14 peptide: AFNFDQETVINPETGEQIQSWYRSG
Put plainly: labelled AK1967 on biotinylated peptide #1 captured on avidin plate, chemiluminescence. As for the experimental part: as §1

In assay [15] the target is T15, epitope mapping peptide #14 (human, not fully specified (C-terminus)).
T15 peptide: INPETGEQIQSWYK(Biotin)
Put plainly: labelled AK1967 on biotinylated peptide #14 captured on avidin plate, chemiluminescence. As for the experimental part: as §1

Assay [16] concerns the target T16, epitope mapping peptide #15 (human, not fully specified (C-terminus)).
T16 peptide: VINPETGEQIQSWYK(Biotin)
Put plainly: labelled AK1967 on biotinylated peptide #15 captured on avidin plate, chemiluminescence. As for the experimental part:
as §1

The target of assay [17] is T17, epitope mapping peptide #16 (human, not fully specified (C-terminus)).
T17 peptide: TVINPETGEQIQSWYK(Biotin)
Put plainly: labelled AK1967 on biotinylated peptide #16 captured on avidin plate, chemiluminescence. As for the experimental part:
as §1

No end group written: not given here. *: point of attachment. Biotin = O=C1N[C@H]2[C@H](CS[C@H]2CCCCC(=O)*)N1

Consider 1 molecule from patent publication US20230213519A1 (4TEEN4 PHARMACEUTICALS, published 2023).

B1: monoclonal anti-DPP3 antibody AK1967 (clone 1967 of SEQ ID No.: 2) (antibody, V domains shown)
VH: QVTLKESGPGILQPSQTLSLTCSFSGFSLSTSGMSVGWIRQPSGKGLEWLAHIWWNDNKSYNPALKSRLTISRDTSNNQVFLKIASVVTADTGTYFCARNYSYDYWGQGTTLTVSS
VL: DVVVTQTPLSLSVSLGDPASISCRSSRSLVHSIGSTYLHWYLQKPGQSPKLLIYKVSNRFSGVPDRFSGSGSGTDFTLKISRVEAEDLGVYFCSQSTHVPWTFGGGTKLEIK
notes: Murine monoclonal; A human IgG1 kappa backbone was used for chimerization and humanization; The Octet run captured 'AK1967' on anti-human Fc biosensors, so the format in that run is uncertain; also called Procizumab; PCZ
With B1, the binding result in assay [1] is “binds”; in assay [2] it was “binds”; in [3], “binds”; in assay [4], “no binding”; in [5] it was “no binding”; in assay [6] it was “no binding”. Moreover, the binding result is recorded as “no binding” in [7]; “no binding” in assay [8]; “no binding” in assay [9]; “no binding” in assay [10]; “binds” in assay [11]; “binds” in [12]. The binding result in assay [13], in assay [14], in assay [15], in assay [16] and in [17] was “binds” each time.
